This is an account of results in patent WO2016038310A1.

Values joined by “and” are separate entries in the source; they are usually repeats but may differ in a detail not shown here. Equal entries are not always repeated.

Assay [1] addresses les FSH ovine et humaine (ovine and human FSH). The experiment in a line: ELISA saturation binding, Kd estimated with GraphPad Prism.
The target of assay [2] is les eCG et hCG (equine and human chorionic gonadotropins). The assay is described as above.

B1: scFv A8 (scFv)
scFv: QVQLQQSGGGLVQPGGSRKLSCAASGFTFSDFGTHWIRQAPEKGLEWVAYISSGSSTRYYADTVKGRFTISRDDPKNTLFLQMTSLRSEDTAMYYCARSYDGYHVPSFAYWGQGTLVTVSAGGGGSGGGGSGGGGSDIQMTQTPLSLSVSLGDQASISCRSSQNIVHSNGNTYLEWYLQKPGQSPKLLIYRVSNRFSGIPDRFSGSSSGTDFTLKISRVEAEDLGVYYCFQGSHVPLTFGAGTKLELKHHHHHH
In general, Kd refers to the equilibrium constant for the complex coming apart. On to B1, for which the Kd in assay [1] was 3.12 µM and 4.62 µM; in assay [2], 5.78 µM and 22.2 µM.
